We go through 3 molecules from US20240383984A1 (Genentech, published 2024).

Changes are numbered by the printed parent chain.

The target in test [1] is T1, human FcRH5 protein fragment (soluble) (human, UniProt Q96RD9 16-851).
T1 construct: whole entry named; also called soluble human FcRH5; Human FcRH5 (BIACORE analyte)
T1 sequence: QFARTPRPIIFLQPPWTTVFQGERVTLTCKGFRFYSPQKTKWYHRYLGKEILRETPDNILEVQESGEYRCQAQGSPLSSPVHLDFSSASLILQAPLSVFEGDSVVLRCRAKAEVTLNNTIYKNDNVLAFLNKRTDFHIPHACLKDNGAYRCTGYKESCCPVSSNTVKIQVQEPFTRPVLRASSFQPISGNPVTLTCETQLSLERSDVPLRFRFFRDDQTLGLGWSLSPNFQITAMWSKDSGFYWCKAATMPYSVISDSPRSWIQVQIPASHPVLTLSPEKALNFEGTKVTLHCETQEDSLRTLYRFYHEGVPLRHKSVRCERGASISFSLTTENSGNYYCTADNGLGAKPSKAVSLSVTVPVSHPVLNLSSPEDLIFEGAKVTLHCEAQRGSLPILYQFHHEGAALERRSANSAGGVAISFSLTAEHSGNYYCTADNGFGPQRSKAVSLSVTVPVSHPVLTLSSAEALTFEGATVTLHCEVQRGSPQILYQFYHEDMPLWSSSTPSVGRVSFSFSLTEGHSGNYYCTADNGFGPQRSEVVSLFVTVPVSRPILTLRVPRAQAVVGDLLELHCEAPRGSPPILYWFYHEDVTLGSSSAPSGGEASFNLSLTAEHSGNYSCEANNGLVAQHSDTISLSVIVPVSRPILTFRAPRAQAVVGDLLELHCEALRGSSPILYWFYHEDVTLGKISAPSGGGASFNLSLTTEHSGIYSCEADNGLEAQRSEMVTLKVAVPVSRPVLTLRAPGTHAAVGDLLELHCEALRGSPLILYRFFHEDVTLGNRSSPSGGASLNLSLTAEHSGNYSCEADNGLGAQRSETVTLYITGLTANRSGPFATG
The test is described as follows: SPR (BIACORE), TDB captured as ligand, Hu FcRH5 as analyte, 25 °C, 1:1 binding model. (In general: In SPR one partner is held on a chip, and binding of the other changes the refractive index at the surface.)

Test [2] concerns the target T2, human FcRH4 (full-length, on SVT2 cells) (human, UniProt Q96PJ5 20-515).
T2 construct: whole, on cells; also called SVT2-FcRH4
T2 sequence (looked up): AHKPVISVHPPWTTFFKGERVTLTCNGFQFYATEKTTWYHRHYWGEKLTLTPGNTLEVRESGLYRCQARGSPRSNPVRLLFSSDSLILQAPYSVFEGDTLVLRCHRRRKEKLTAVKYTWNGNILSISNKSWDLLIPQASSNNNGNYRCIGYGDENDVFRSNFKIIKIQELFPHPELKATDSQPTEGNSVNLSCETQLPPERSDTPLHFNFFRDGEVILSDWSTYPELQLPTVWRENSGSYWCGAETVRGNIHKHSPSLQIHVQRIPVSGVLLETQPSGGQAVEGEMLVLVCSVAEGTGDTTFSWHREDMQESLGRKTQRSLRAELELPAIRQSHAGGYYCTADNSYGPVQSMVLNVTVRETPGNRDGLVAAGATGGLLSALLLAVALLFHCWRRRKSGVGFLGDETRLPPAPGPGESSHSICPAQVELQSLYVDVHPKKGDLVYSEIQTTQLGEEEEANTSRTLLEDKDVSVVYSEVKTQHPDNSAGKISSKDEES
The test is described as follows: flow cytometry on SVT2-FcRH4 cells, PE-labelled secondary. As to the method:
Human FcRH5, cyno FcRH5, human FcRH1, FcRH2, FcRH3, and FcRH4 transfected mouse SVT2 cells were used to test binding and cross-reactivity of FcRH5 TDBs. The method was carried out as follows. Cultured SVT2 cells were lifted using non-enzyme cell dissociation buffer (Sigma, #C5914). 1×10⁵ cells were suspended in 100 μL and incubated with FcRH5 TDBs at 3 μg/ml. […] Cells were washed twice with FACS buffer before flow cytometry analysis was carried out on a FACSCalibur.
Background: Flow cytometry measures light scatter and fluorescence of single cells or particles in a stream.

Test [3] deals with T3, cynomolgus FcRH5 protein fragment (soluble) (cynomolgus monkey).
T3 construct: whole entry named; also called Cyno FcRH5 (BIACORE analyte)
T3 chain: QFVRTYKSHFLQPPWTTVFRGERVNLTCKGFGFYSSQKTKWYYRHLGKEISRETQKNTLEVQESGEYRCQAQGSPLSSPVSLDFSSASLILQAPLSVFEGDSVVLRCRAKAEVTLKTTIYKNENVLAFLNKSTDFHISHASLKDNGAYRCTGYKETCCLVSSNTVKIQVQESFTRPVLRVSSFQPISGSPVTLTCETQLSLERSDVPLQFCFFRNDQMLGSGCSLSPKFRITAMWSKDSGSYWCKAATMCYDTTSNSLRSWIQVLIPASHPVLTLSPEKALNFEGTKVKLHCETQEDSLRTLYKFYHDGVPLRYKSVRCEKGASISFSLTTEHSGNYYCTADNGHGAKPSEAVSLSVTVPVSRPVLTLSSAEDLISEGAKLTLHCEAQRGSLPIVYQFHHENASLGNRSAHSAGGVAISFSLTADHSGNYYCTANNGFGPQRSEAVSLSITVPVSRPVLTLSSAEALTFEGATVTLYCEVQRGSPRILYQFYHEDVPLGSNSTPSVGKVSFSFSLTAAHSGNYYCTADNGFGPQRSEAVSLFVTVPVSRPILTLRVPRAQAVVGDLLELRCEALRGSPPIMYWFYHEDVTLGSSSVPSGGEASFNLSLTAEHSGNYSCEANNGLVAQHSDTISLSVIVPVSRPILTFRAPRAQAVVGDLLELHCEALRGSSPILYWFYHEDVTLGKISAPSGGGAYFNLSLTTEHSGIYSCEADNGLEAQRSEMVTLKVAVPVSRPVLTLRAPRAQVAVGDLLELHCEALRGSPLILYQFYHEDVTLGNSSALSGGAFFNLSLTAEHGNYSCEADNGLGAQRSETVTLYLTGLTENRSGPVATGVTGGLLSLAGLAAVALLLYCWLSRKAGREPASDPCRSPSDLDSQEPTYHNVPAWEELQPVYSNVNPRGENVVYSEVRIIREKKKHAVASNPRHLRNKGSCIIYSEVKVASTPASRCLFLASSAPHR
Description: SPR (BIACORE), Cyno FcRH5, 1:1 binding model.

The target in test [4] is T4, cynomolgus FcRH5 (full-length, on cells) (cynomolgus monkey).
T4 construct: also called SVT2-Cyno-FcRH5; cyno FcRH5
T4 chain: T3 chain
The test is described as follows: FACS, SVT2 cells.

B1: hu1G7.v1.4/38E4.v1 TDB (bispecific antibody, V domains shown)
VH 1: EVQLVESGPGLVKPSETLSLTCTVSGFSLTRFGVHWVRQPPGKGLEWLGVIWRGGSTDYNAAFMSRLTISKDNSKNQVSLKLSSVTAADTAVYYCSNHYYGSSDYALDNWGQGTLVTVSS
VL 1: DIQMTQSPSSLSASVGDRVTITCKASQDVRNLVVWFQQKPGKAPKLLIYSGSYRYSGVPSRFSGSGSGTDFTLTISSLQPEDFATYYCQQHYSPPYTFGQGTKVEIK
VH 2: EVQLVQSGAEVKKPGASVKVSCKASGFTFTSYYIHWVRQAPGQGLEWIGWIYPENDNTKYNEKFKDRVTITADTSTSTAYLELSSLRSEDTAVYYCARDGYSRYYFDYWGQGTLVTVSS
VL 2: DIVMTQSPDSLAVSLGERATINCKSSQSLLNSRTRKNYLAWYQQKPGQSPKLLIYWTSTRKSGVPDRFSGSGSGTDFTLTISSLQAEDVAVYYCKQSFILRTFGQGTKVEIK
notes: knob-into-hole TDB; also called 1G7.v1.4 TDB; 1G7.v1.4 (TDB format)
The term Kd denotes the constant that tells how readily two partners part at equilibrium. For orientation: koff means a measure of how fast the partners let go of each other. Read a high koff as a short-lived complex. As a reminder, the kon is a measure of how fast the partners come together. High values mean fast association, low ones slow association. Consider B1, for which, in test [1], the Kd is 2.41 nM, the koff was found to be 0.00117 s⁻¹ and the on-rate (kon) came out at 484000 M⁻¹ s⁻¹.

B2: 1G7.v85/38E4.v1 TDB (bispecific antibody, V domains shown)
VH 1: B1 VH 1 with M64V
VL 1: B1 VL 1
VH 2: B1 VH 2
VL 2: B1 VL 2
notes: knob-into-hole TDB; also called 1G7.v85 TDB; 1G7.v85 (TDB format)
On to B2, for which the binding result in test [2] is on record as “no binding”. In test [3], this molecule came in with a Kd of 7.82 nM, an off-rate constant (koff) of 0.000455 s⁻¹ and a kon of 58200 M⁻¹ s⁻¹.

B3: 17B1 (antibody, mouse IgG2a, V domains shown)
VH: QVQLQQSGPELVRPGVSVKISCKGSGYTFTHYAMHWVKQSHTKSLEWIGMISSSSGNTNFNQKFMDKATMTVDKSSTTAYLELARLTFGDSAIYYCARWSYYALFDYWGQGTTVTVSS
VL: ENVLTQSPAIMSASPGEKVTMTCSADSSVDYIHWYQQKSNTSPKLWIYDTSKLASGVPGRFSGSGSGNSYSLTISSMEAEDFATYYCFQGSGYPLTFGSGTKLELK
notes: mouse mAb, Campaign C; recombinant murine IgG2a for SPR
As to B3, in test [4], the binding result is recorded as “binds”.
